# The supplement of paper PMC10567573
# B1: DLC1 (parent)
# chain: RDAIEALCRRLNTLNKCAVMKLEI
# Variants of: B1
# Assay: protein stability index of a GFP-peptide fusion (GPS, HEK-293T) (PSI 1-6); higher = more stable
# Conditions: c terminus: a fixed tail appended
# 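Also: lentivirally expressed fusions sorted by FACS into six bins by GFP to DsRed ratio, PSI derived from sequencing read proportions per bin multiplied by bin number.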
row,Variant,protein stability index
1,K16N,2.96
2,K16L,1.48
3,K16A,2.39
4,K16D,1.76
5,K16V,2.29
6,K16C,2.44
7,C17A,1.16
8,C17M,1.63
9,C17K,2.36
10,C17Y,3.7
11,C17S,2.17
12,C17R,1.78
13,C17D,3.14
14,C17H,4.06
15,C17T,3.57
16,R10C,3.31
17,R10M,3.3
18,R10L,2.43
19,R10F,1.86
20,R10P,2.71
21,R10K,3.44
22,R10W,2.52
23,R10H,3.54
24,R10V,1.86

row,Variant,protein stability index
1,R10T,3.17
2,R10S,3.43
3,R10A,2.67
4,R1E,2.47
5,R1Y,2.99
6,R1G,2.35
7,R1I,2.9
8,R1D,2.4
9,R1V,3.38
10,R9S,4.18
11,R9I,1.79
12,R9L,1.63
13,R9N,3.68
14,R9H,3.54
15,R9K,1.69
16,M20F,3.51
17,M20E,1.49
18,M20D,1.67
19,M20C,2.27
20,M20G,1.85
21,M20S,2.64
22,N15E,1.44
23,N15P,1.75
24,N15I,3.36

row,Variant,protein stability index
1,N15D,3.27
2,N15A,3.2
3,N15V,3.72
4,N15Y,1.24
5,N15F,3.09
6,N15K,2.63
7,N15L,3.76
8,L14S,3.43
9,L14K,1.88
10,L14I,4.47
11,L14E,2.98
12,L14W,2.22
13,L14V,2.93
14,I24M,2.39
15,I24Y,1.29
16,I24D,1.52
17,I24R,1.5
18,I24A,1.18
19,I24G,1.13
20,I24N,1.63
21,I24S,1.91
22,A3K,2.7
23,A3N,3.61
24,A3V,3.3

row,Variant,protein stability index
1,A3Y,2.37
2,A3E,1.48
3,A3M,3.33
4,I4T,2.24
5,I4F,3.05
6,I4R,2.41
7,I4Q,2.12
8,I4M,2.53
9,I4C,2.22
10,I4H,2.44
11,A6R,2.92
12,A6L,3.11
13,A6M,2.97
14,A6S,3.05
15,A6T,2.35
16,A6P,3.8
17,A6H,3.17
18,A6C,3.07
19,E23C,2.07
20,E23Y,1.36
21,E23G,2.23
22,E23K,2.65
23,E23P,2.27
24,E23D,1.52

row,Variant,protein stability index
1,A18Q,2.02
2,A18P,1.82
3,A18C,2.83
4,A18F,4.02
5,A18L,2.58
6,L7H,1.31
7,L7G,2.13
8,L7S,1.78
9,L7Q,2.41
10,L7R,2.13
11,L7E,1.02
12,L7K,2.16
13,L7M,3.54
14,T13H,2.02
15,T13N,2.28
16,T13Y,2.79
17,T13L,2.33
18,T13I,2.04
19,V19I,1.67
20,V19Q,1.84
21,V19Y,2.76
22,V19A,3.74
23,V19G,1.6
24,V19H,3.85

row,Variant,protein stability index
1,N12D,4.53
2,N12P,2.26
3,N12V,2.37
4,N12H,2.28
5,N12C,3.35
6,N12T,2.2
7,N12K,2.79
8,N12Q,1.45
9,N12S,1.77
10,N12F,2.97
11,L22I,1.89
12,L22T,2.54
13,L22Q,2.59
14,L22E,1.93
15,L22S,1.45
16,L22Y,2.29
17,L22H,1.44
18,E5W,2.13
19,E5L,3.21
20,E5V,1.97
21,E5H,2.47
22,E5Y,2.23
23,K21A,2.6
24,K21G,1.97

row,Variant,protein stability index
1,K21Q,4.24
2,K21E,1.73
3,K21T,2.06
4,K21Y,2.5
5,L11K,2.96
6,L11F,2.72
7,L11W,2.05
8,L11Y,2.67
9,L11T,2.52
10,L11C,3.62
11,C8P,2.04
12,C8Q,1.07
13,C8V,2.73
14,C8N,2.35
15,C8D,2
16,C8A,2.37
17,D2S,3.79
18,D2I,2.03
19,D2P,3.08
20,D2H,1.94
21,D2M,3.99
22,D2W,4.44
23,D2E,3.12
